Data: patent US20140206609A1 (Sanofi, published 2014)
*1 amine or outer side, *2 acyl side, *3 side chain or, on linkers, in order; H or OH if unused. Where no end group is shown, it is not given here. Side-chain parts run from the residue outwards. [ ]: non-standard residue; d: D form. The star is where a group is joined. γGlu = O=C(O)[C@H](CCC(=O)[*:2])N[*:1]; Palmitoyl = CCCCCCCCCCCCCCCC(=O)*; Aib = CC(C)(N)C(=O)O

T1: human GIP receptor (human, UniProt P48546 22-466)
T1 sequence (looked up): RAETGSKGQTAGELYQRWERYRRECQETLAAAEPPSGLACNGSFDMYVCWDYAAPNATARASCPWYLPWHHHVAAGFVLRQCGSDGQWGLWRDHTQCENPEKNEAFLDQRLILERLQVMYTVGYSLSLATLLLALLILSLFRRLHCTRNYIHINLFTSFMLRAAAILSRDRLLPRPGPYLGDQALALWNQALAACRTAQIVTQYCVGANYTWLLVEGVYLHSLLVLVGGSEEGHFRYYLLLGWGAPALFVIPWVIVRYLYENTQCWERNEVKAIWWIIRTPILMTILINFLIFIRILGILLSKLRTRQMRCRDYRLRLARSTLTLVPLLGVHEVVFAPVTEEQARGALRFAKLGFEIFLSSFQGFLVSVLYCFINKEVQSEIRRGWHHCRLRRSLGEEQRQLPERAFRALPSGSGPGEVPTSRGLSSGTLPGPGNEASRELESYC


Assays:
Experiment in all cases: cell-based or functional assay
human glucagon receptor = human glucagon receptor (human, UniProt P47871 26-477)
Chain of human glucagon receptor (P47871 26-477): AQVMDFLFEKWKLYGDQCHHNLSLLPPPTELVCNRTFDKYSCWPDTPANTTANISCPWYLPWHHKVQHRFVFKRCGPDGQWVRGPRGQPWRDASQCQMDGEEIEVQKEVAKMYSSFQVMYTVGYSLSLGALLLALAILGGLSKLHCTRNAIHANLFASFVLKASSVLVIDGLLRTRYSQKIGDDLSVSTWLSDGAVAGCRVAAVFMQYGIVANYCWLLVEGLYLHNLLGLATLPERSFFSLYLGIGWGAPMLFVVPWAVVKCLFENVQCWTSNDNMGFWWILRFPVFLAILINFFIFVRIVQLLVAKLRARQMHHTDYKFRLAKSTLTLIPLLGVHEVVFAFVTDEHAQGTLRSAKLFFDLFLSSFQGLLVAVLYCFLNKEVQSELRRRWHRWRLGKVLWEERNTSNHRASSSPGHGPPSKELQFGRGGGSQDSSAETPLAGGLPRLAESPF

human GIP receptor = biological target: T1, human GIP receptor
human GLP-1 receptor = human GLP-1 receptor (human, UniProt P43220 24-463)

Binder | EC50 hGLUC R [pM] (human glucagon receptor) | EC50 hGIP R [pM] (human GIP receptor) | EC50 hGLP-1 R [pM] (human GLP-1 receptor)
Y[Aib]EGTFTSDLSIQK([γGlu-Palmitoyl])EKRAAQDFIEWLKAGGPSSGAPPPS-NH2 (N-terminus assumed; SMILES CCCCCCCCCCCCCCCC(=O)N[C@@H](CCC(=O)NCCCC[C@H](NC(=O)[C@H](CCC(N)=O)NC(=O)[C@@H](NC(=O)[C@H](CO)NC(=O)[C@H](CC(C)C)NC(=O)[C@H](CC(=O)O)NC(=O)[C@H](CO)NC(=O)[C@@H](NC(=O)[C@H](Cc1ccccc1)NC(=O)[C@@H](NC(=O)CNC(=O)[C@H](CCC(=O)O)NC(=O)C(C)(C)NC(=O)[C@@H](N)Cc1ccc(O)cc1)[C@@H](C)O)[C@@H](C)O)[C@@H](C)CC)C(=O)N[C@@H](CCC(=O)O)C(=O)N[C@@H](CCCCN)C(=O)N[C@@H](CCCNC(=N)N)C(=O)N[C@@H](C)C(=O)N[C@@H](C)C(=O)N[C@@H](CCC(N)=O)C(=O)N[C@@H](CC(=O)O)C(=O)N[C@@H](Cc1ccccc1)C(=O)N[C@H](C(=O)N[C@@H](CCC(=O)O)C(=O)N[C@@H](Cc1c[nH]c2ccccc12)C(=O)N[C@@H](CC(C)C)C(=O)N[C@@H](CCCCN)C(=O)N[C@@H](C)C(=O)NCC(=O)NCC(=O)N1CCC[C@H]1C(=O)N[C@@H](CO)C(=O)N[C@@H](CO)C(=O)NCC(=O)N[C@@H](C)C(=O)N1CCC[C@H]1C(=O)N1CCC[C@H]1C(=O)N1CCC[C@H]1C(=O)N[C@@H](CO)C(N)=O)[C@@H](C)CC)C(=O)O) [SEQ ID NO: 33] | 12900 | 9.1 | 6.4
Y[Aib]EGTFTSDLSIQK([γGlu-Palmitoyl])DKRAAQDFIEWLKAGGPSSGAPPPS-NH2 (N-terminus assumed; SMILES CCCCCCCCCCCCCCCC(=O)N[C@@H](CCC(=O)NCCCC[C@H](NC(=O)[C@H](CCC(N)=O)NC(=O)[C@@H](NC(=O)[C@H](CO)NC(=O)[C@H](CC(C)C)NC(=O)[C@H](CC(=O)O)NC(=O)[C@H](CO)NC(=O)[C@@H](NC(=O)[C@H](Cc1ccccc1)NC(=O)[C@@H](NC(=O)CNC(=O)[C@H](CCC(=O)O)NC(=O)C(C)(C)NC(=O)[C@@H](N)Cc1ccc(O)cc1)[C@@H](C)O)[C@@H](C)O)[C@@H](C)CC)C(=O)N[C@@H](CC(=O)O)C(=O)N[C@@H](CCCCN)C(=O)N[C@@H](CCCNC(=N)N)C(=O)N[C@@H](C)C(=O)N[C@@H](C)C(=O)N[C@@H](CCC(N)=O)C(=O)N[C@@H](CC(=O)O)C(=O)N[C@@H](Cc1ccccc1)C(=O)N[C@H](C(=O)N[C@@H](CCC(=O)O)C(=O)N[C@@H](Cc1c[nH]c2ccccc12)C(=O)N[C@@H](CC(C)C)C(=O)N[C@@H](CCCCN)C(=O)N[C@@H](C)C(=O)NCC(=O)NCC(=O)N1CCC[C@H]1C(=O)N[C@@H](CO)C(=O)N[C@@H](CO)C(=O)NCC(=O)N[C@@H](C)C(=O)N1CCC[C@H]1C(=O)N1CCC[C@H]1C(=O)N1CCC[C@H]1C(=O)N[C@@H](CO)C(N)=O)[C@@H](C)CC)C(=O)O) [SEQ ID NO: 31] | 3080 | 6.5 | 6
